Laboratory results published in paper PMC9882641, “Utilizing genetic code expansion to modify N-TIMP2 specificity towards MMP-2, MMP-9, and MMP-14” (Research Square, 2023).

Columns and labels:
Assay in all cases: enzyme inhibition assay (chromogenic substrate, fit to Morrison's tight binding equation); MMP-2ACT (0.6 nM), MMP-9CAT (3 nM) or MMP-14CAT (1 nM) incubated with 0-25 nM N-TIMP2 variant for 1 h at 37 C in 50 mM HEPES, 10 mM CaCl2, 0.05% Brij-35, 1 mM DTNB, pH 7.5; then 100 uM chromogenic substrate, absorbance at 412 nm; three independent experiments
Details in all cases: both partners purified
[1] = target: T1, activated MMP-2 (MMP-2ACT) (human, UniProt P08253 110-660)
T1 sequence (looked up): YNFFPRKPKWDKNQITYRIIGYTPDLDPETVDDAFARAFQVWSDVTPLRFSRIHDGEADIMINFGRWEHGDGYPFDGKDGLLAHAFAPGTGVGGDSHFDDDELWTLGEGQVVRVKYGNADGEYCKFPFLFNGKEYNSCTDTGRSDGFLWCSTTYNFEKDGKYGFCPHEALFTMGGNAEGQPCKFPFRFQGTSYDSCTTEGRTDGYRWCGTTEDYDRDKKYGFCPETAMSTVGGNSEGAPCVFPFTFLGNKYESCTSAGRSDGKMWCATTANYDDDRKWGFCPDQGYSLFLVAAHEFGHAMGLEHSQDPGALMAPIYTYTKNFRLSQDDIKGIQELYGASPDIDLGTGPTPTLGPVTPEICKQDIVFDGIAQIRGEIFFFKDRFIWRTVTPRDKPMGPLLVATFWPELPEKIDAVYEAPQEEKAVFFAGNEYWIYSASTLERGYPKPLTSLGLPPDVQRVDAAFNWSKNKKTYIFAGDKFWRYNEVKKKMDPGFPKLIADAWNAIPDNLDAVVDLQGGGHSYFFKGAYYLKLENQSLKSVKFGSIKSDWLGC

[2] = target: T2, human MMP-9 catalytic domain (MMP-9CAT) (human, UniProt P14780 107-215; P14780 391-443)
T2 construct: Matrix metalloproteinase 9 (MMP-9), human, catalytic domain, residues 107-215 (first stretch; residues 216-390 left out); Matrix metalloproteinase 9 (MMP-9), human, catalytic domain, residues 391-443 (second stretch)
T2 chain (looked up): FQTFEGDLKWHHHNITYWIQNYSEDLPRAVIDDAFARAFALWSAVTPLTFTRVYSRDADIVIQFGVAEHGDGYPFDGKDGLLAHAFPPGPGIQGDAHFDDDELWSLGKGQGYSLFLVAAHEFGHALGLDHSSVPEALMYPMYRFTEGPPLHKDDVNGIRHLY

[3] = target: T3, human MMP-14 catalytic domain (MMP-14CAT) (human, UniProt P50281 112-292)
T3 construct: Matrix metalloproteinase 14 (MMP-14), human, catalytic domain, residues 112-292

B1: N-TIMP2 (N-terminal domain of TIMP2) (domain or fragment, human, UniProt P16035 27-153, looked up)
chain: CSCSPVHPQQAFCNADVVIRAKAVSEKEVDSGNDIYGNPIKRIQYEIKQIKMFKGPEKDIEFIYTAPSSAVCGVSLDVGGKKEYLIAGKAEGDGKMHITLCDFIVPWDTLSTTQKKSLNHRYQMGCE
notes: numbers count on: the mature protein (Cys1 is the N-terminus); Cloned in the vector pMECS; also called wild-type N-TIMP2; parental N-TIMP2; source: E. coli WK6, periplasmic extract, purified (Ni-NTA)
Q: For B1, which Ki [1] is on record?
A: 0.233 nM

Q: And the Ki [2]?
A: 0.322 nM

Q: What about the Ki [3] of the same binder?
A: 0.711 nM
